Assay results published in PMC7705965 (Journal of Medicinal Chemistry, 2020).
Primed or numbered codes have the meaning given here. Where no end group is shown, it is not given here. [ ]: non-standard residue; d: D form. TAMRA = 5(6)-carboxytetramethylrhodamine; PEG6′ = [PEG]6, polyethylene glycol

Assays:
α-cobratoxin [1] = target: T1, α-cobratoxin (Naja kaouthia, UniProt P01391 1-71); assay: fluorescence polarisation; conditions: both partners purified
α-cobratoxin [2] = target: T1, α-cobratoxin; assay: fluorescence polarisation; conditions: both partners purified; remark: listed apart in the source

T1 sequence (P01391 whole entry): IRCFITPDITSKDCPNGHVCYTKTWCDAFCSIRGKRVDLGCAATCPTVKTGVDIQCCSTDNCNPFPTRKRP

Binder | Kd (α-cobratoxin [1]) | Ki (α-cobratoxin [1]) | IC50 (α-cobratoxin [2])
{TAMRA}-HAKTYMWDGWYMPTSH-NH2 [peptide 9 (TAMRA-HAKTYMWDGWYMPTSH-NH2)] | 52 µM | – | –
[PEG6′]YMWDGWYM-NH2 [peptide 12 ([PEG]6-YMWDGWYM-NH2)] | – | 26 µM | –
Ac-HAKTYMWDGWYMPTSH-NH2 [peptide 1 (Ac-HAKTYMWDGWYMPTSH-NH2)] | – | 2 µM | 29 µM
